Measured values as given in FireProtDB (doi:10.1021/bi00178a007).

B1: Tissue-type plasminogen activator, P00750 (parent)
chain: MDAMKRGLCCVLLLCGAVFVSPSQEIHARFRRGARSYQVICRDEKTQMIYQQHQSWLRPVLRSNRVEYCWCNSGRAQCHSVPVKSCSEPRCFNGGTCQQALYFSDFVCQCPEGFAGKCCEIDTRATCYEDQGISYRGTWSTAESGAECTNWNSSALAQKPYSGRRPDAIRLGLGNHNYCRNPDRDSKPWCYVFKAGKYSSEFCSTPACSEGNSDCYFGNGSAYRGTHSLTESGASCLPWNSMILIGKVYTAQNPSAQALGLGKHNYCRNPDGDAKPWCHVLKNRRLTWEYCDVPSCSTCGLRQYSQPQFRIKGGLFADIASHPWQAAIFAKHRRSPGERFLCGGILISSCWILSAAHCFQERFPPHHLTVILGRTYRVVPGEEEQKFEVEKYIVHKEFDDDTYDNDIALLQLKSDSSRCAQESSVVRTVCLPPADLQLPDWTECELSGYGKHEALSPFYSERLKEAHVRLYPSSRCTSQHLLNRTVTDNMLCAGDTRSGGPQANLHDACQGDSGGPLVCLNDGRMTLVGIISWGLGCGQKDVPGVYTKVTNYLDWIRDNMRP

Variants of: B1
Conditions: Homo sapiens; pH 8; Thermal; DSC; Tris - Oac/100mM NaOAc 50 mM; transition: 2; structure 1PML; whole UniProt chain shown

**Q.** Which Tm does the source give for Y290F here?
**A.** 81.5 °C

**Q.** What about the “change of melting temperature, mutant - wild type (higher = more stable)” value of the same variant?
**A.** 14.8 °C
